Reference: PMC5557964

Biological target: citrullinated fibronectin N-terminal 30 kDa fragment (treated with PAD2 or PAD4)
Test: ELISA; FN N-terminal 30 kDa fragment coated o/n on 96-well DNA-BIND plates (3 µg/cm^3, +4 °C), blocked with BSA, citrullinated on the plate by PAD2 or PAD4 (2.4 U/ml, o/n, +37 °C) or left as control; integrin αVβ3 5 µg/ml for 1 h at room temperature in Delfia assay buffer; detected with anti-αV antibody L230 and Eu-labelled anti-mouse antibody, time-resolved fluorescence; BSA wells as background

Substance: recombinant integrin αVβ3 ectodomain (from UniProt P06756 31-992; P05106 27-718) (receptor)
- reduction of binding against the control FN fragment: > 50%
